Experimental data as given in the supplement of paper PMC9170038.

Tested on: K4 kissing-loop RNA reporter
Assay: apparent KD of K4 kissing-loop reporter; higher = weaker reporter binding
Settings: Eterna round: R107
Experimental: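 RNA-MaP round R107: designed RNA switches with theophylline, tryptophan, arginine or FMN aptamers are transcribed on-chip within common flanks. They are titrated with a labelled K4 kissing-loop RNA reporter in RNA-MaP buffer (100 mM Tris pH 7.5, 80 mM KCl, 4 mM MgCl2), without ligand or with the indicated ligand. Median apparent KD per design.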

[1] = input ligand: theophylline 20 uM
[2] = input ligand: tryptophan 2.4 mM
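Also: bound reporter read as fluorescence of individual clusters on recovered sequencing chips by microscopy, with normalized cluster intensities fitted with a binding model.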

Row | Sequence | apparent KD of K4 kissing-loop reporter (input ligand: FMN 200 uM) [nM] | apparent KD of K4 kissing-loop reporter (input ligand: arginine 13.2 mM) [nM] | apparent KD of K4 kissing-loop reporter (input ligand: none) [nM] | apparent KD of K4 kissing-loop reporter [1] [nM] | apparent KD of K4 kissing-loop reporter [2] [nM]
1 | AGGUACUACGGAAGGAGCGCACCAGUGAUGUUGGUGUGUGACCGUGACAUGGCAGUCAAGGUGCAGGUAGGUCGCCGUGGCCUUU [Anatartibe] | 143 | 113 | 146 | 122 | 115
2 | CGCGCCCAGCCGGAUACCAGUGACCCGCUGGGAACCGCGGGCCCAGAGUGAUGUUCGGGACACCCUUGGCAGCCGCCUGGGCGGG [#2 Same State - Theophylline B Attempt #16 (HarryS)] | 1350 | 606 | 597 | 460 | 608
3 | UGACUGGACUGAAGGAGCGCGCGAGACAAAGUCUCGAACUCUUAGUGAUGUUAGGAAAUAACGCAGGUAGGUCGCAGUCUAGUCU | 381 | 247 | 332 | 473 | 408
4 | UAAAUAAUAAAACGAGUGAUGUUCGACGAUACCAGCCUCGAUAGAGGCCCUUGGCAGCGUAAAUGAUCACAAAGCCAAGGUAUAA [#01 K4 Theophylline A Exclusion] | 165 | 183 | 159 | 199 | 138
5 | UUCCUAUUAUUAACACUAUAUACAACUGAAGGAGCGACAAUAAAGUCAGGUAGGUCGCAGAAUUAAUGAGUGAUGUUCAUUUUUA [JR_ExcArginiA_Sub013] | 81.9 | 141 | 96.6 | 124 | 60.9
6 | AGUAGAGCAUCAGAUACCAGACAGAACUGAUGGUAAGGAGUGAUGUUCCUUAAUCAGCUUGUCCCUUGGCAGCUGAUAAUAGUCA [#13 K4 Theophylline B Same State] | 423 | 437 | 475 | 359 | 438
7 | UGAACUGUCUGCGAUACCAGCUAAGGAGUGAUGUUCCGGCUCGACGAAACGUCGAGCCAUAGCCCUUGGCAGCGCAGACAGUUCA [#28 K4 Theophylline B Same State] | 387 | 160 | 334 | 721 | 272
8 | CAUAUAUAUAGAGGAUAUCGAGUAGAGUGAUGUUCUGCCUGGGUUGGCUCGCAAGGGCCUUCCCAGCGAGAAGGCUAUAUAUAUG [harrys-mod#1ED5.33] | 225 | 399 | 502 | 431 | 482
9 | AAAUAGAUCAGUCACCCAGUGAUGUUGGAAGGAGCGUGCGAAAGCACAGGUAGGUCGCCGAAAUAAAAUUGGCUGAUCAAAAUAA | 151 | 221 | 116 | 308 | 104
10 | GAUUUAGAGGCGGCCGCCACUAGUGAUGUUAGUGAUGUUUGAUACUGUAUAUAUCGGCGUGUAGAUAGGACCGGGCCAGAUGGAG [tbqqmullin] | 281 | 157 | 235 | 229 | 221
11 | UCCUGCAAUCGACCACGAAAGUGGAUGGAUACCAGAGUCGAAAGACUCCCUUGGCAGCCAGUGAUGUUGGAAGCAGGUAAAUAAA [#SwitchBubble 17 #K4Late] | 364 | 359 | 445 | 288 | 406
12 | GGGAGGAAAAUUUUCCUCAAAAGUUGGCUACAGGAUAUCGUGGGAAUGAGAAGGGUAACCGAGACGCCCAGUGAUGUUGGGUGCC [Antegete] | 415 | 247 | 318 | 251 | 245
13 | GCUAUGGUAGGAAGGAGCGCUUAUUUAUUUUUACGAGUGAUGUUCGGUAGUAGAUAGUUAAAGCAGGUAGGUCGCCUACUAUAGC [Arginine B K4 16] | 141 | 112 | 148 | 135 | 123
14 | GGAAAGCCAGUGAUGUUGGCAUAAACUGAAGGAGCGCGUGAAAACGCAGGUAGGUCGCAGAACCUUGCCAACUAUAUUAUUUACC [Ex Arginine A K4 21] | 128 | 221 | 160 | 221 | 135
15 | AAGGCCACGAGAAGGAGCGUGCUGUGGAGUGAUGUUCCAUUGUAGACCUAAGGUCUACGAGCACAGGUAGGUCGCUCGUGGUCAA [Omei KL Arginine B SS A v4] | 113 | 97.4 | 95.3 | 102 | 99.6
16 | UUAGCUCUAUAGAGCAAGAGGUAUACUGAUACCAGAGGCUAUAGCCUCCCUUGGCAGCGGAACGAGUGAUGUUCGAAACCUCAUU [AK5 SS Theophylline A] | 754 | 898 | 940 | 799 | 526
17 | CGUUUAUAGCAGGAUACCAGUACGGAUAAGGUACGUUAAUAGUAGAGUGAUGUUCUAAAGUACCCUUGGCAGCUUAGAGUGAGUG [#20 K4 Theophylline B Exclusion] | 90.3 | 147 | 142 | 126 | 92.2
18 | UGAUAGGACAGAAGGAGCGGUAGUGAUGUUACCAAAAGGGUAAGGUGUCAAAAGACACCCUGCCAGGUAGGUCGCUGUCCUAUCU | 103 | 89.9 | 99.1 | 83.4 | 87
19 | CCUAUCUCAUACGAUACCAGUGAAAUAAUAUUUAUAAGCAGUGAUGUUGCAUUCCAAGAACACCCUUGGCAGCGUAUGGGAUAGG [Ex Theophylline B K4 19] | 168 | 187 | 178 | 189 | 143
20 | CAUACGCAUGGAGGAUAUGAGAUUACUCAUAUCAUUUAAUAUUCUCAGUGAUGUUGAGAUUUAGACUCAGAAGGCCAUGUGUAUG [Ex FMN B 13] | 302 | 310 | 350 | 357 | 317
21 | GUCCCAGUGAUGUUGGUAGGCGGGCGGGAUACCAGCGAAGACUCACGCCCUUGGCAGCCCACAUAUCCCGCGUAGGGAUUAGCCC [Same State - Theophylline A (Freestyle 22)] | 652 | 437 | 656 | 638 | 457
22 | GGCAGUGAUGUUGCCAGUGGCAGAUGCGAAGGAGCGCGGUGAGACGCAGGUAGGUCGCGCAUUGAAAUUGCUGUCACUAGAAUGC [whbob_Ex_Arginine_A_2t127] | 258 | 285 | 283 | 305 | 208
